Target: the molecule itself
Experiment: cryo-EM structure

B1: SgrAI, type II restriction endonuclease, his-tagged wild type (enzyme, Streptomyces griseus)
chain: PFTYSIEATRNLATTERCIQDIRNAPVRNRSTQFQLAQQNMLAYTFGEVIPGFASAGINGMNYRDVIGRPVENAVTEGTHFFRDDFRVDSNAKAKVAGDIFEIVSSAVMWNCAARWNSLMVGEGWRSQPRYSRPTLSPSPRRQVAVLNLPRSFDWVSLLVPESQEVIEEFRAGLRKDGLGLPTSTPDLAVVVLPEEFQNDEMWREEIAGLTRPNQILLSGAYQRLQGRVQPGEISLAVAFKRSLRSDRLYQPLYEANVMQLLLEGKLGAPKVEFEVHTLAPEGTNAFVTYEAASLYGLAEGRSAVHRAIRELYVPPTAADLARRFFAFLNERMELVNG
  binding result: binds

From paper doi:10.1101/585943 (bioRxiv, 2019)
